Like-named read-outs stand apart in the source and are kept apart here.
Experiments:
Test in all cases: fluorescence polarisation
[1] = biological target: T1, Hsp104 (S. cerevisiae AAA+ disaggregase), wild type (S. cerevisiae, UniProt P31539 1-908)
[2] = biological target: T2, Hsp104 T317A (sensor 1 ATPase mutant in NBD1) (S. cerevisiae, UniProt P31539 1-908, T317A)
[3] = biological target: T3, Hsp104 N728A (sensor 1 ATPase mutant in NBD2) (S. cerevisiae, UniProt P31539 1-908, N728A)
[4] = biological target: T1, Hsp104 (S. cerevisiae AAA+ …); remark: listed apart in the source
[5] = biological target: T2, Hsp104 T317A (sensor 1 ATPase mutant in …); remark: listed apart in the source
[6] = biological target: T3, Hsp104 N728A (sensor 1 ATPase mutant in …); remark: listed apart in the source

T2 sequence (P31539 whole entry T317A): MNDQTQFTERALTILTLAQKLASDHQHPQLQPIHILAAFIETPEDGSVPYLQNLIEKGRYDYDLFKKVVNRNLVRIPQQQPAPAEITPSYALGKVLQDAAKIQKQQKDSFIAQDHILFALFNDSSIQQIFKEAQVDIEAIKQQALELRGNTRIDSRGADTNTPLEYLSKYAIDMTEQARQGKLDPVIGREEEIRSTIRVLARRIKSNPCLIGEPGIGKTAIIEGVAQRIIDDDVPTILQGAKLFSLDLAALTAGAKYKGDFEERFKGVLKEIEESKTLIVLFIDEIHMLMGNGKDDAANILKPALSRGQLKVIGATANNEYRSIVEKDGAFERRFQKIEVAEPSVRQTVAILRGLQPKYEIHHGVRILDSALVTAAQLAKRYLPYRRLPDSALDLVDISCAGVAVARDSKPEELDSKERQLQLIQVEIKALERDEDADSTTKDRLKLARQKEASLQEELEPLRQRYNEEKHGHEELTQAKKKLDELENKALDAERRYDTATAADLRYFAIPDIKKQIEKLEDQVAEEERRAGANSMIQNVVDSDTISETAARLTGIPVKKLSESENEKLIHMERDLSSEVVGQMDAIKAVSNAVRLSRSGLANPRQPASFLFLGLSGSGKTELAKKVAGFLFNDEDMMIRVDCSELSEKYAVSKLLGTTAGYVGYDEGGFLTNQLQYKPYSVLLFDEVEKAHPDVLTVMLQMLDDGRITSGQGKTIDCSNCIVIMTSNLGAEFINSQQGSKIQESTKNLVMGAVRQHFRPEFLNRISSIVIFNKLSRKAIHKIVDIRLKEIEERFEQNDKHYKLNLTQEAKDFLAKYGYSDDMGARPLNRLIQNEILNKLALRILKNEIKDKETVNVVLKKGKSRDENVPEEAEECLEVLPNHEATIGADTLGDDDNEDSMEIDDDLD
T1 sequence (P31539 whole entry): as the sequence (P31539 whole entry T317A) above, with A317T counted along it
T3 sequence (P31539 whole entry N728A): as the sequence (P31539 whole entry T317A) above, with A317T, N728A counted along it

Kd [1]: > 2000 nM | Kd [2]: > 2000 nM | Kd [3]: ~33 nM | Kd [4]: ~20 nM | Kd [5]: ~1400 nM | Kd [6]: 16 to 20 nM
B1: FITC-labeled casein (natural protein)
chain: RPKHPIKHQGLPQEVLNENLLRFFVAPFPEVFGKEKVNELSKDIGSESTEDQAMEDIKQMEAESISSSEEIVPNSVEQKHIQKEDVPSERYLGYLEQLLRLKKYKVPQLEIVPNSAEERLHSMKEGIHAQQKEPMIGVNQELAYFYPELFRQFYQLDAYPSGAWYYVPLGTQYTDAPSFSDIPNPIGSENSEKTTMPLW
modifications: FITC label (site not stated)

Reference: publication PMC5770238 (Science (New York, N.Y.), 2017)
